# System: MS2 coat protein
# Test: apparent KD of MS2 coat protein; designed switch direction (-1 OFF switch, 1 ON switch): -1; higher = weaker reporter binding
# How it was run: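 The apparent KD reported per design is the median over clusters of curve fits to normalised cluster fluorescence. The RNA switches were transcribed on Illumina chips by stalled E. coli RNA polymerase. SNAP-549-labelled MS2 coat protein was titrated from 0.7 or 1.5 nM, doubling up to 3 µM, in Tris-HCl pH 7.5 buffer containing KCl, MgCl2, BSA, DTT, tRNA and Tween-20, with no input, 200 uM small-molecule ligand, or an oligonucleotide input.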
# [1] = input ligand: microRNA oligo, concentration not stated
# [2] = Eterna round: R95, input ligand: microRNA oligo, concentration not stated
# [3] = Eterna round: R95, input ligand: FMN 200 uM
# [4] = Eterna round: R95, input ligand: none
Sequence,apparent KD of MS2 coat protein (input ligand: FMN 200 uM) [nM],apparent KD of MS2 coat protein [1] [nM],apparent KD of MS2 coat protein (input ligand: none) [nM],apparent KD of MS2 coat protein [2] [nM],apparent KD of MS2 coat protein [3] [nM],apparent KD of MS2 coat protein [4] [nM]
"GCACGGAGUGUAGGAUAUCUGUGCGAUUAGCUCAGAGAAGGACACAUGAGGAUCACCCAUGUGUAACUCAACAUUAAUCCGUGC [Eli exng1 - 074] (Eterna round: R96, puzzle: Exclusion NG 1)",9.63,7.59,10.6,,,
"CCGAGGUGGCGGUCCUAUGACAUGAGGAUCACCCAUGUACCUCGCCACAAGCUCUUUGCUCAUCUUAUAGUUCUCGG [Onlaor] (Eterna round: R96, puzzle: Sensor v3, turn-off variant 1)",19.9,132,24.5,,,
"AGAGUACUGCGAGGAUAUACAUGAGGAUCACCCAUGUAAUAGUGUGAGGCUUUGCCUCACACAAUGUAGAAGGCGCAGUACUCA [Mat - Exclusion NG 2 - Mod of JL - D6] (Eterna round: R96, puzzle: Exclusion NG 2)",15.7,9.81,17.8,,,
CUAUUCCGAGGAUAUACAUGAGGAUCACCCAUGUCGGGCCUCUGCGUUUAGCGCGAAAGUAGAAGGUGGGUUUC [JL Riri mod 9] (puzzle: Exclusion 3),,,,28.3,,
"ACAUGAGGAUCACCCAUGUGCCCAUCUAGCACAUGUCCUCGCUAGGAUAUGUAGGCCUCGAGGCCGCAGAAGGAGCUAAAAGAG [Atgequa] (Eterna round: R96, puzzle: Exclusion NG 3)",453,82.8,127,,,
UCAAGUAUGUAGGAUAUGAUGUGAUUCUACAUAUCAGAAGGACGUACAUGAGGAUCACCCAUGUAACUUGCAUG [Exclusion 6 - B - 12:d] (puzzle: Exclusion 6),,,,33.1,96.2,32
"AGUACUAACACGGAAGUGUUAGUACAAUAAGCUUGUGUUACAUGAGGAUCACCCAUGUCCUCAUAAGCUCGUCUUAA [Mat - Sensor v3 - Turn-off var 2 - D62] (puzzle: Sensor v3, turn-off variant 2)",,,,487,48.4,40.2
"GCAAGCUUUUGCUCGCCUUACAUGAGGAUCACCCAUGUGGGCCCGGGCCCGGGCCCGCCGGGCCCGGGCCCGGGCCC [-59.4, -80.7 kcal, A 10%] (Eterna round: R97, puzzle: Sensor, turn-off variant 1)",26.5,,32.2,,,
"AGUACUAACACGAAAGUGUUAGUACAAUAAGCUUGUGUUACAUGAGGAUCACCCAUGUCCUCAUAAGCUCGUCUUAA [Mat - Sensor v3 - Turn-off var 2 - D49] (puzzle: Sensor v3, turn-off variant 2)",,,,200,39.9,47.4
"CGCUGGUGAGGAUAUGGGUGUGGUUACAUGAGGAUCACCCAUGUGGAGUCGCAUGUGGGUCCAGAAGGCGCGGGUG [-25.2, -23.4 kcal, 18% A] (Eterna round: R97, puzzle: Exclusion 5)",158,,215,,,
"AAACCCUGAGGAUAUACAUAACAACAAAGCCUCACAUGCCAACAUGAGGAUCACCCAUGUAGAAGGCAGGCCAA [Mod R3 Insanara 13 - Jieux - Exclusion 2] (Eterna round: R97, puzzle: Exclusion 2)",19.2,,10.1,,,
"GUGUGUUGAUUAGGAUAUGCUCUAAGCAAUCGGGCAGAAGGAGUUAGACAUGAGGAUCACCCAUGUAAAUAUCGGAUCCCAACG [Eternabot solution 17] (Eterna round: R96, puzzle: Exclusion NG 1)",18.6,16.2,19.3,,,
"GGAUAUCGAGGAUAUACAUGAGGAUCACCCAUGUUGAAUCCGUGGGAUGGCCGACGAUGUAGAAGGUGACUCAU [Eternabot (Original) Solution 27] (Eterna round: R97, puzzle: Exclusion 3)",134,,232,,,
"UAAUUAAUUAAUUAAUAAUACAUGAGGAUCACCCAUGUAGAUCCUACAUACAAGCUUUGUAGCUCGUCUUAUAAUUA [Stov1/3-A1] (Eterna round: R97, puzzle: Sensor, turn-off variant 1)",214,,337,,,
"UGUAUCCGAGGAUAUCGCUUGAGGGACAUGAGGAUCACCCAUGUGAAGAAAAGCGUCCCGCGAGAAGGCGGACCCA [EX5 B.24] (Eterna round: R97, puzzle: Exclusion 5)",189,,66.4,,,
"GAGUACAGAGGAUAUACAUGAGGAUCACCCAUGUGUUUCAGCUAGGAGACUAGCGAAAGUAGAAGGCUGUACUU [salish99_ex3_r4_005] (Eterna round: R97, puzzle: Exclusion 3)",25.7,,8.49,,,
